# Results as given in US20190284603A1.
# Legend:
# [1] = target: Mono-nucleosomes from mouse embryonic stem cells (ESCs) (mouse) (UniProt P68433); test: single-molecule TIRF time-lapse imaging, images every 15 minutes
# [2] = target: Recombinant unmodified nucleosomes; test: single-molecule TIRF time-lapse imaging, summed binding events
Substance,time to equilibrium of binding and dissociation [1] [min],percent of nucleosomes scored (bound by antibody) [2] [%]
Tri-Methyl-Histone H3 (Lys4) (C42D8) Rabbit mAb (Alexa Fluor 555 Conjugate) #11960 (antibody),75,–
Tri-Methyl-Histone H3 (Lys27) (C36B11) Rabbit mAb (Alexa Fluor 647 Conjugate) #12158 (antibody),45,–
Acetyl-Histone H3 (Lys9) (C5B11) Rabbit mAb (Alexa Fluor 647 Conjugate) #4484 (antibody),–,0.1
